Assay results reported in US20240254229A1 (Molecular Partners, published 2024).

What was measured:
[1] = target: T1, hCD123 (recombinant, construct not stated) (human, UniProt P26951 19-305, limits assumed); experiment: switchSENSE, CD33 and CD123 on one chip; kon to CD123
T1 construct: also called CD123 (Ligand 2)
T1 sequence (looked up): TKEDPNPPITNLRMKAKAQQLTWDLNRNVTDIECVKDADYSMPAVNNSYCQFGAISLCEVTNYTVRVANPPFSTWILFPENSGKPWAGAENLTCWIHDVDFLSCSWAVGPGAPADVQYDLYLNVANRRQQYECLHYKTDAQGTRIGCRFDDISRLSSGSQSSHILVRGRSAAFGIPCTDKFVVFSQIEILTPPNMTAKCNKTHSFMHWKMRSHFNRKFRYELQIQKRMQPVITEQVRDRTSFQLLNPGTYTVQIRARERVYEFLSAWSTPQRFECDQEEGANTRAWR
Experimental: (§1) The designed ankyrin repeat proteins: DARPin® protein #20, DARPin® protein #21, DARPin® protein #22, DARPin® protein #27, DARPin® protein #40 and DARPin® protein #41 were tested in a concentration of 0.16 and 64 nM (in a buffer PE140 containing 10 mM Na2HPO4/NaH2PO4, 140 mM NaCl, 0.05% Tween20, 50 μM EDTA, 50 μM EGTA) for binding against two ligands hCD33 and hCD123, which both were immobilized simultaneously to DNA nanolevers, on the surface, at a pre-defined ratio (2:1, CD33:CD123) and 10% density (100:50) on an ADP-48-1-0 chip, where 100% density 1000 receptors/μm2 (preincubated R1-B48-CD123 and G1-A48-CD33 (100 nM) diluted in cNL-48 (dark)). Briefly the following steps were performed: [0724] Conjugation. Amine coupling of the two ligands (CD33 and CD123) to the DNA nanolever (A48, B48, respectively) and purification of the conjugates using the proFIRE® solution (Dynamic Biosensors GmbH) at 25° C. [0725] Evaluation of all the combined affinity and avidity of all different proteins to both ligands attached on the surface of an ADP chip using a DRX+ instrument (dynamic BIOSENSORS). [0726] Statistical analysis (repeatability from 2 to 5 times) including regeneration of the chip surface every concentration analyzed and long dissociation times and data were fitted using a bi-exponential global fit.

[2] = target: T2, hCD33 and hCD123 immobilized simultaneously on one switchSENSE chip (ratio 2:1, CD33:CD123) (human, UniProt P20138 18-259; P26951 19-305, limits assumed); experiment: switchSENSE; KD,2 (avidity, simultaneous binding of CD33 and CD123)
T2 construct: Not a complex: two separate ligands on one surface; used for avidity values and for off-rates; also called both ligands; both targets attached to the surface of the chip
Experimental: as §1

[3] = target: T1, hCD123 (recombinant, construct not …); experiment: switchSENSE, hCD33 and hCD123 co-immobilised 2:1; panel headed CD123, column KD1 (affinity)
Experimental: as §1

[4] = target: T3, hCD33 (recombinant, construct not stated) (human, UniProt P20138 18-259, limits assumed); experiment: switchSENSE, CD33 and CD123 on one chip; kon to CD33
T3 construct: also called CD33 (Ligand 1)
Experimental: as §1

[5] = target: T4, biotinylated extracellular domain of human CD33 (SEQ ID NO: 87), Fc and Avi tagged (human, UniProt P20138 18-259, biotinylated with BirA-GST (Avi tag)); experiment: SPR (ProteOn XPR36), target on GLC chip, DARPin as analyte
T4 construct: also called hCD33; human target hCD33

[6] = target: T5, biotinylated extracellular domain of human CD123 (SEQ ID NO: 88), Fc and Avi tagged (human, UniProt P26951 19-303, biotinylated with BirA-GST (Avi tag)); experiment: as above
T5 construct: also called hCD123
T5 sequence: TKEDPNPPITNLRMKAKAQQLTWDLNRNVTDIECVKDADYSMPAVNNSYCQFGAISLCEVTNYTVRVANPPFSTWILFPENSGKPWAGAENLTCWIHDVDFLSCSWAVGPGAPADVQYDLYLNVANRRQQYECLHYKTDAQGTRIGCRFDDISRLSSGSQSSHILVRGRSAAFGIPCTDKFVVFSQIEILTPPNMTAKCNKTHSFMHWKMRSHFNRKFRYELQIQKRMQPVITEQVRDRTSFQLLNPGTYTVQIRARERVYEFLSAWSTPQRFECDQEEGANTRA

T4 sequence (P20138 18-259 R69G): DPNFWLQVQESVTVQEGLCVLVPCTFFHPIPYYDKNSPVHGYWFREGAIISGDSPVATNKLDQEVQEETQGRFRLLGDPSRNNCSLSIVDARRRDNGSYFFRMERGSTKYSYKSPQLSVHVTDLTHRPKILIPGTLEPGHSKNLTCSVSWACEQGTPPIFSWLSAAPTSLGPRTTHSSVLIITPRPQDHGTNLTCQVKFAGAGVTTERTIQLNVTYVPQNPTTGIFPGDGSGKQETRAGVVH
T3 sequence (P20138 18-259 limits assumed): as the sequence (P20138 18-259 R69G) above, with G52R counted along it
T2 sequence (P20138 18-259 limits assumed, one chain of several): as the sequence (P20138 18-259 R69G) above, with G52R counted along it

kon [1]: ~1e+07 M⁻¹ s⁻¹
Kd [2]: 0.2 to 0.3 nM
Kd [3]: 4.5 nM
kon [4]: ~1e+06 M⁻¹ s⁻¹
Kd [5]: 5.7 nM
Kd [6]: 19 nM
B1: DARPin® protein #27 (designed binder)
chain: DLGKKLLEAALEGQLDEVRELLKAGADVNAKDQEGYTPLHLAAALGHLEIVEVLLKAGADVNAKDSIGRTPLHLAAYKGHLEIVEVLLKAGADVNAQDLLGETPADLAAEQGHQDIAEVLQKAAGSPTPTPTTPTPTPTTPTPTPTGSDLGVKLLLAASRGQLDEVRILLKAGADVNAKDIDEGYTPLHIAAYYGHLEIVEVLLKAGADVNAKDRYGKTPLHLAAISGHLEIVEVLLKAGADVNAQDDKGDTPADLAADYGHQDIAEVLQKAAGSPTPTPTTPTPTPTTPTPTPTGSDLGQKLLEAAWAGQDDEVRELLKAGADVNAKNSRGWTPLHTAAQTGHLEIFEVLLKAGADVNAKDDKGVTPLHLAAALGHLEIVEVLLKAGADVNAQDSWGTTPADLAAKYGHEDIAEVLQKAA
notes: CD123-CD33-CD3; also called αCD123-aCD33-αCD3_1; not shown: N-terminal His-tag
